The values that follow come from paper PMC12680531.

The experiment has as its target T1, cell surface TM4SF4 of human cancer cell lines, P48230.
T1 chain: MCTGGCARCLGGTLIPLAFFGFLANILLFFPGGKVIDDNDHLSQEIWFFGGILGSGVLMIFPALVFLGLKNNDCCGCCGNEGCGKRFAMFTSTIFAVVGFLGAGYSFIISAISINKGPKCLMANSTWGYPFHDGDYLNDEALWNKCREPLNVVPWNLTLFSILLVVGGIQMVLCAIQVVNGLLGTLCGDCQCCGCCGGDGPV
As to the kind of experiment: flow cytometry on cells. To be noted: chain shown with the change, n = 3, parent: est. 100, read off a plot. (In general: Flow cytometry measures light scatter and fluorescence of single cells or particles in a stream.)

B1: humanized 2B7 antibody Hz2B7-1.1 L:N31V (protein)
chain 1: EITLKESGPTLVKPTQTLTLTCTFSGFSLSTYGIGVSWIRQPPGKALEWLAHIWWNDNKYYNTALKSRLTITKDTSKNQVVLTMTNMDPVDTATYYCARKEGSSAPFAYWGQGTLVTVSS
chain 2: DIVMTQSPDSLAVSLGERATINCKSSQSLLVSSNQKNYLAWYQQKPGQPPKLLIYFASTRESGVPDRFSGSGSGTDFTLTISLMQAEDVAVYYCQQHYRTPPTFGQGTKVEIK
As for B1, the percent of parent reads like this: (A549 cells) 97%; (Calu-3 cells) 87%.

B2: humanized 2B7 antibody Hz2B7-1.1 L:N31F (protein)
chain 1: EITLKESGPTLVKPTQTLTLTCTFSGFSLSTYGIGVSWIRQPPGKALEWLAHIWWNDNKYYNTALKSRLTITKDTSKNQVVLTMTNMDPVDTATYYCARKEGSSAPFAYWGQGTLVTVSS
chain 2: DIVMTQSPDSLAVSLGERATINCKSSQSLLFSSNQKNYLAWYQQKPGQPPKLLIYFASTRESGVPDRFSGSGSGTDFTLTISLMQAEDVAVYYCQQHYRTPPTFGQGTKVEIK
On to B2, for which the percent of parent (A549 cells) came out at 130% and the percent of parent (Calu-3 cells) turned out to be 100%.
